# In patent US20160215020A1 (published 2016):
# Target: complement component C3 (human) (human, UniProt P01024 23-1663)
# Test: cell-based or functional assay
binder,measurement,value
ICVWQDWGAHRCTK (N-terminal acetyl; (1Me)Trp at position 4; disulfide Cys2-Cys12; AEEAc between Thr13 and Lys; C-terminal amide; Lys side chain coupled to an arm of an eight-arm 40 kD PEG (NOF SUNBRIGHT HGEO-400GS)) [(CA28-AEEAc)8-PEG40k],"IC50, classical complement inhibition assay (C3b deposition ELISA), as a function of CA28 moiety concentration",1.93 µM
